Experimental data taken from the supplement of paper PMC12764529.
± gives the half width of the 95% confidence interval.

Experiment: folding stability dG unfold from chymotrypsin proteolysis; higher = more stable
Procedure, shortened: (§1)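 Designed mini-proteins (under 80 residues, no cysteine) in a PA-tagged cDNA display construct were digested with trypsin and chymotrypsin. Each protease was used at 11 concentrations (threefold dilutions) plus a no-protease condition, followed by sequencing. K50 was inferred by Bayesian fitting of sequencing counts, and unfolding free energy was derived against a sequence-predicted unfolded-state K50 and a shared folded-state K50, per protease or combined. Only designs with AlphaFold2 dimer inter-PAE above 15 were kept.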

Sequence	folding stability dG unfold [kcal/mol]
SAGGSAGGSEKVIVVPSEEALKALEDAGIEVKKIEVFTETVTYYYPPGFPPVTETRTYLLVEVSAGGSAGGS [r12_78_TrROS_Hall]	2.26 ± 0.072
SGMTVTPVTHPNGQTLTLTFDPETGTVTVNRSPAISLEEVKAALEALIPSDRSVTVSTLPDGTAAVTLTASA [r9_933_JUSTAS]	1.06 ± 0.1
SAGGSIELPLEEGSTAEVELELRVPFYRLDANGRPVAPEERTLRIRARFTRLPDGRVLVEVEVEVESAGGSA [r2_154_TrMRF]	5.24 ± 0.1
SAGGSAAPVSRVVELEFVLPPELVAEAVDALRKLPGVKASFELAEVLPDGYVRVRVTIEVPDDVDLSAGGSA [r15_441_TrMRF]	3.95 ± 0.073
SAGGSKEKFLTIEHPDYVIKAYVDYPKEGKLRVRIEIYDKNGKLLKTIEVEAYSPEEVLEFLEKAASAGGSA [r2_82_TrMRF]	3.28 ± 0.13
SAGDRIRITMPFDDLRKIMDEIGYPPEQMTAEEFADRLAEHFPGVKVDIEMDREDGYFTVEIELPPGMKSAG [r5_264_TrROS]	1.43 ± 0.041
SAGGSAKIEIERIEPRPVLVPRPDGSLVPVPEVEVELRIEGDPEKMEEEERKKIEALAEEIAKELGSAGGSA [r2_40_TrMRF]	0.736 ± 0.056
SAGGEEIEAEVVEVRTFTLENGFEVTTTLIRVDGKLILITSVKKTKNGKWEVVEVKELPLEELSPEELSAGG [r13_494_TrROS_Hall]	2.73 ± 0.035
SAGGTAEEIVEALKEAGIPVLSIEPNSDGTYTITVGGPDGTPFTIEISSANPADLAALKEAIPEEVSSAGGS [r16_821_TrMRF]	4.01 ± 0.072
SAGGSAGGSAGWRTHSHWVPPDNIPELAERIQDWGVKVEIERDPKDGWYRVTITIPDDFISAGGSAGGSAGG [r11_1043_TrROS]	1.38 ± 0.15
SPLVLNPEGRTLTITLTVTVDPDVDRQVVPVLVVDEGAPRTFTFEVPKGLAGPVTFTLEIDLPPGAYVEVSA [r9_973_TrMRF]	2.29 ± 0.066
SAEVVIVIEPGMTEEQVRARLKAALEEALRKGKKVKKIVVKSEEAARRIRDLLKELGVPEEDVEVVLLPSAG [r14_589_TrROS_Hall]	3.45 ± 0.17
SAGMKPSPEGKTIITIDTSTGKVDVVFPDGKEFTLPFDSSSIEEIIKTIKEKLGYPPEVPFNIDEIEIASAG [r5_923_JUSTAS]	2.239 ± 0.019
SAGTLVLVIEVPLEDVTPEQAEEIAEEAARFLREAGLPEGIEVEDVRVERLPDGRLLVLLPMRILEDESAGG [r19_87_TrMRF]	2.59 ± 0.059
SAGGSAGGSMRVEITEVKEVRGEGGEPRYLVTVRITVPDGKEETFVYEFKTPEELEKLEVELPSAGGSAGGS [r20_130_JUSTAS]	3.37 ± 0.038
SAGGSAGGSAGKMKIRVKIKRKDGKTLVIEGMSLEEIKELAEKEGFEIEKVEVVEVEPEESAGGSAGGSAGG [r11_283_TrROS_Hall]	4.24 ± 0.13
SAGGSAGGITIRDPDNGIEVKILKITPNHMIIQAEFPNGRNYMIEMPPDSLKPGDEIPMTVHPVSAGGSAGG [r6_152_TrROS]	-0.14 ± 0.41
SAGGMPPENIKEITEVERNPDGMKEITIEMEDPELAKQGNPEQVDQMAEWLQDEFPDRGIPVTIEPGPSAGG [r13_243_TrROS]	-0.435 ± 0.28
SAGGGMTVTIEVEGSIKKSIKGISYKDDKEKKESNKNKYLKKTITVTLTAEDDPNAAAAAIAALGLGSAGGS [r16_467_JUSTAS]	0.313 ± 0.21
SAGKLKPGDPVKIKIEIERDPGNGMVRVTYKIEFKDGMYVTMIIPPNGPIHVEIFNPDDGKEREETIPLSAG [r5_55_TrROS]	2.67 ± 0.096
SAGGSAGGSAGELSLEEIKKLAPDETAVVKLPPSPETIVITVSTNPNGTLKIEIKRYPPGSAGGSAGGSAGG [r11_13_JUSTAS]	0.657 ± 0.03

Experiment: folding stability dG unfold (combined trypsin and chymotrypsin); higher = more stable
Procedure, shortened: as §1

Sequence	folding stability dG unfold [kcal/mol]
SAMKKTETRVLEIRIGDYLAKIFLTEYEDGRVETLIEVYGPDPAVVEEVKDFLEKLDPDLEITEIVVLDSAG [r14_611_TrMRF]	2.68 ± 0.12
SAGGSSMPLEVTEVKKIGDKIVITLRVPPSVGPLSLGLTIELKSKPVTITSTFDPSTTTATIEVGLSAGGSA [r2_261_JUSTAS]	3.25 ± 0.17
SAGKETVKLVVVNKETNKVVEVTFNKDGEIVSVKVFEVKPAPPPPPVELSEEQLVKTKDGKWRSLEELKSAG [r5_685_TrROS_Hall]	0.829 ± 0.11
SAGGSAGGAELKPVGNDPETGKTAVILLKKPDPTGLVLALEGLSPEELKKLAEIPGYEAVAVLASAGGSAGG [r6_185_TrMRF]	0.787 ± 0.071
SAGGSAGGSAMTPEEIKKLFPNAKMKPFKGNGKTVIVIELPSGEKIEIVFDDGKPRIIVYKGSAGGSAGGSA [r18_13_TrMRF]	1.32 ± 0.13
SAGMTLVAVNRETGEVNVIELDPEDPELVTVTYPNGEKETFPLAEIAERLGLPVSLLLNDYDIERIYGSSAG [r5_156_TrMRF]	1.71 ± 0.084
SAGGSAGGSAGGKLKPGQKVLVIELKVTKVKTKKDGKKEFEFEITRIEIVEVPEGAKILSAGGSAGGSAGGS [r10_826_TrROS_Hall]	1.46 ± 0.14
SMEEVKEALRKAGIDVPVTKIETEKLPDGSYKVTLTVGDKKVLTVYVPPEPPEPPVFYRTPPNGSREPVLSA [r9_442_JUSTAS]	0.504 ± 0.18
SAGGKYKIVEITIKVEPGQSPEEIAAEIAKKLAPPGEKVKVKVEKKDGYLRIYIINEETGEVVEEFELSAGG [r13_724_TrROS_Hall]	1.88 ± 0.14
SAGGSAKKIKIFSLEELRERFPDLSEEELKKRAEELAKELAERLKEEGKPVEVEIVEVKLPEEEKKSAGGSA [r15_287_TrROS_Hall]	1.69 ± 0.094
SAEEPEVVRLEIRITVVERDEDGRLREREVTLEVEVLPDGRVVIRVDGRVFVIDLETGELVEVLEDVEPSAG [r14_821_TrROS_Hall]	4.02 ± 0.089
SMIKPGDTVTIVLKVKPEDLEKIREAVEELLRELFPDVEVESVEVNPEEENYVVITVRVDGKEITLVIERSA [r9_1079_TrROS_Hall]	2.5 ± 0.041
SAGGSAGGSAGGSMKITKTLIPETGLYKVTITLPGGKPVEIEAPPSSSLEEVKKKAEKLSAGGSAGGSAGGS [r4_205_JUSTAS]	-0.145 ± 0.26
SAGGSAKVKIEVSIEVSEDGTITITVRITNENGEELTVTITIKLPPAPTVVYDSEEERKKALEALASAGGSA [r15_1018_TrROS_Hall]	2.38 ± 0.26
MKIRVEITVRNPDGEELKIEIVLSLEELEELRKEGKPLTLEELKALIEERARKLAEELDLEVEIKIVEIEPS [r1_174_TrROS_Hall]	> 6
SAGGSAGGSPMPVIEEVPLNPVEEKPDPSSNTLTVKYPDGTYRILTKNPDGSYSFKVLPSSSISAGGSAGGS [r12_351_JUSTAS]	1.71 ± 0.089
SAGGSAMEKLKEIPGIERIEVKEDGKIIIHVKMSEEERKKLAEALRKEGKVKIEVVPVEVEEEEEESAGGSA [r15_554_TrROS_Hall]	2.3 ± 0.11
SAGGSAGGSAGGENNWMIFIEIKIEWEIKPTPDGKWKWEPEIEIKSIRIMPPNSPAAKDLSAGGSAGGSAGG [r7_889_TrROS]	2.6 ± 0.24
SAGGSAGGSDLPIKIKMEPIPPGMPPGQVYRMEIEIPNGWVIRYSFYFTGGKLEFEPMEIKPVSAGGSAGGS [r12_1049_TrROS]	3.13 ± 0.28
SAGGSKPKTVEITLEVDGKKVKITVTEKDGKLTVTITFPDGTKLTIELPENMSIEEALKKALEALKSAGGSA [r2_92_TrROS_Hall]	2.87 ± 0.096
SMKLIGYDPVTGKPVTLTFDPETKTVTVTHPNGEKITAPAESITFDPETGTVTITLPTKTVTFYVPPEANSA [r9_325_TrMRF]	4.82 ± 0.2

Sequence	folding stability dG unfold [kcal/mol]
SAGGSAGGSEKVIVVPSEEALKALEDAGIEVKKIEVFTETVTYYYPPGFPPVTETRTYLLVEVSAGGSAGGS [r12_78_TrROS_Hall]	1.96 ± 0.083
SGMTVTPVTHPNGQTLTLTFDPETGTVTVNRSPAISLEEVKAALEALIPSDRSVTVSTLPDGTAAVTLTASA [r9_933_JUSTAS]	1.27 ± 0.059
SAGGSIELPLEEGSTAEVELELRVPFYRLDANGRPVAPEERTLRIRARFTRLPDGRVLVEVEVEVESAGGSA [r2_154_TrMRF]	4.98 ± 0.13
SAGGSAAPVSRVVELEFVLPPELVAEAVDALRKLPGVKASFELAEVLPDGYVRVRVTIEVPDDVDLSAGGSA [r15_441_TrMRF]	3.8 ± 0.073
SAGGSKEKFLTIEHPDYVIKAYVDYPKEGKLRVRIEIYDKNGKLLKTIEVEAYSPEEVLEFLEKAASAGGSA [r2_82_TrMRF]	3.05 ± 0.14
SAGDRIRITMPFDDLRKIMDEIGYPPEQMTAEEFADRLAEHFPGVKVDIEMDREDGYFTVEIELPPGMKSAG [r5_264_TrROS]	1.42 ± 0.18
SAGGSAKIEIERIEPRPVLVPRPDGSLVPVPEVEVELRIEGDPEKMEEEERKKIEALAEEIAKELGSAGGSA [r2_40_TrMRF]	0.428 ± 0.16
SAGGEEIEAEVVEVRTFTLENGFEVTTTLIRVDGKLILITSVKKTKNGKWEVVEVKELPLEELSPEELSAGG [r13_494_TrROS_Hall]	2.93 ± 0.14
SAGGTAEEIVEALKEAGIPVLSIEPNSDGTYTITVGGPDGTPFTIEISSANPADLAALKEAIPEEVSSAGGS [r16_821_TrMRF]	3.86 ± 0.12
SAGGSAGGSAGWRTHSHWVPPDNIPELAERIQDWGVKVEIERDPKDGWYRVTITIPDDFISAGGSAGGSAGG [r11_1043_TrROS]	1.21 ± 0.14
SPLVLNPEGRTLTITLTVTVDPDVDRQVVPVLVVDEGAPRTFTFEVPKGLAGPVTFTLEIDLPPGAYVEVSA [r9_973_TrMRF]	2.18 ± 0.049
SAEVVIVIEPGMTEEQVRARLKAALEEALRKGKKVKKIVVKSEEAARRIRDLLKELGVPEEDVEVVLLPSAG [r14_589_TrROS_Hall]	4.93 ± 0.36
SAGMKPSPEGKTIITIDTSTGKVDVVFPDGKEFTLPFDSSSIEEIIKTIKEKLGYPPEVPFNIDEIEIASAG [r5_923_JUSTAS]	2.31 ± 0.079
SAGTLVLVIEVPLEDVTPEQAEEIAEEAARFLREAGLPEGIEVEDVRVERLPDGRLLVLLPMRILEDESAGG [r19_87_TrMRF]	2.41 ± 0.14
SAGGSAGGSMRVEITEVKEVRGEGGEPRYLVTVRITVPDGKEETFVYEFKTPEELEKLEVELPSAGGSAGGS [r20_130_JUSTAS]	3.13 ± 0.061
SAGGSAGGSAGKMKIRVKIKRKDGKTLVIEGMSLEEIKELAEKEGFEIEKVEVVEVEPEESAGGSAGGSAGG [r11_283_TrROS_Hall]	4.02 ± 0.21
SAGGSAGGITIRDPDNGIEVKILKITPNHMIIQAEFPNGRNYMIEMPPDSLKPGDEIPMTVHPVSAGGSAGG [r6_152_TrROS]	-0.148 ± 0.3
SAGGMPPENIKEITEVERNPDGMKEITIEMEDPELAKQGNPEQVDQMAEWLQDEFPDRGIPVTIEPGPSAGG [r13_243_TrROS]	0.0457 ± 0.28
SAGGGMTVTIEVEGSIKKSIKGISYKDDKEKKESNKNKYLKKTITVTLTAEDDPNAAAAAIAALGLGSAGGS [r16_467_JUSTAS]	0.181 ± 0.25
SAGKLKPGDPVKIKIEIERDPGNGMVRVTYKIEFKDGMYVTMIIPPNGPIHVEIFNPDDGKEREETIPLSAG [r5_55_TrROS]	2.46 ± 0.26
SAGGSAGGSAGELSLEEIKKLAPDETAVVKLPPSPETIVITVSTNPNGTLKIEIKRYPPGSAGGSAGGSAGG [r11_13_JUSTAS]	0.674 ± 0.1
